The target of test [1] is mFc (previously reported monomeric IgG1 Fc) L351S;T366R;L368H;P395K (UniProt P01857). Kind of test: Bio-layer interferometry (Octet-Red96, Pall ForteBio). The settings on record: pH 6.0; 37°C; PBS (composition not stated); PBS adjusted to pH 6.0 or pH 7.4 (same buffer at both pH).
The target of test [2] is 1-D1-15 (Fc mutant, monomer/dimer mixture) T366H; Leu368 unchanged; Leu351 not mutated to Ser; position 395 is Lys or Arg by library design; residues at 409, 428 and 434 not stated in the text (Figure 2B only) (UniProt P01857). Described as above. The settings on record: pH 6.0; 37°C; PBS (composition not stated); PBS adjusted to pH 6.0 or pH 7.4 (same buffer at both pH).
Test [3] has as its target 1-B10-9 (new monomeric IgG1 Fc) T366R;L368H;P395K;K409T;M428L (UniProt P01857). The test is described as above. Particulars: pH 6.0; 37°C; PBS (composition not stated); PBS adjusted to pH 6.0 or pH 7.4 (same buffer at both pH).
In test [4] the target is wild-type IgG1 Fc (dimeric) (UniProt P01857). The test is described as above. Particulars: pH 6.0; 37°C; PBS (composition not stated); PBS adjusted to pH 6.0 or pH 7.4 (same buffer at both pH).
For test [5], the target named is soluble human neonatal Fc receptor (FcRn) (human) (UniProt P55899). The test can be described thus: BLI; Octet-Red96, biotin-labeled human FcRn on streptavidin tips, Fc proteins 10 to 0.625 µM as analytes, PBS with 0.02% Tween 20, pH 6.0, 37°C, 1:1 model.
soluble human neonatal Fc receptor (FcRn) (human), sequence (P55899 24-297, chain 1 of 2): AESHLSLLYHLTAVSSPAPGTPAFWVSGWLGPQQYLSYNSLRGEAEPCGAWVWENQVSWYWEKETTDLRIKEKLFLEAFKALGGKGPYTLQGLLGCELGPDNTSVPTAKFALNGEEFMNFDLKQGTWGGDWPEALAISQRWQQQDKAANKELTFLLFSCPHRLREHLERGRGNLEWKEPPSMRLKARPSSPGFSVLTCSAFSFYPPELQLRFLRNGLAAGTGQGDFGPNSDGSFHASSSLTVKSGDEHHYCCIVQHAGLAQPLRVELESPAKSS
soluble human neonatal Fc receptor (FcRn) (human), sequence (P61769 21-119, chain 2 of 2, further chain): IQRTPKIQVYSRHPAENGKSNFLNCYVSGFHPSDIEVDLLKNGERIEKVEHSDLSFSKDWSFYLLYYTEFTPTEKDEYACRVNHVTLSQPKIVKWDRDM
In another test the target is FcRn (Homo sapiens) (UniProt P55899). Particulars: cited from earlier work.
FcRn (Homo sapiens), sequence (P55899 24-365, chain 1 of 2): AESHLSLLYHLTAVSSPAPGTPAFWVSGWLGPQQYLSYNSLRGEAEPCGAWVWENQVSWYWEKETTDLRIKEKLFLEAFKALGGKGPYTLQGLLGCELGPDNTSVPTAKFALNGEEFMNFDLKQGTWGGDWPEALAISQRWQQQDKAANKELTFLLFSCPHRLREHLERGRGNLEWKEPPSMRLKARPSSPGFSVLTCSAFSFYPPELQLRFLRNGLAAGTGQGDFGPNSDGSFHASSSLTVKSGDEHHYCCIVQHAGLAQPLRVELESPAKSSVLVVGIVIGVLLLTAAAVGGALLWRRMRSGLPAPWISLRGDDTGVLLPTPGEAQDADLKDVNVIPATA
FcRn (Homo sapiens), sequence (partner, as listed by the source, chain 2 of 2): as the sequence (P61769 21-119, chain 2 of 2, further chain) above

As for “neonatal Fc receptor (FcRn), soluble, biotinylated”, the koff in test [1] stood at 0.00064 s⁻¹; in test [3] it was 0.00056 s⁻¹; in test [4], 0.0003 s⁻¹. In addition, the kon was 1200 M⁻¹ s⁻¹ in test [1], 3800 M⁻¹ s⁻¹ in test [2], 1100 M⁻¹ s⁻¹ in test [3] and 1100 M⁻¹ s⁻¹ in test [4].

For “wild-type dimeric IgG1 Fc (domain or fragment)”, in test [5], the equilibrium dissociation constant (Kd) came out at 260 nM, the dissociation rate constant (koff) came to 0.0003 s⁻¹ and the on-rate constant (kon) came out at 1100 M⁻¹ s⁻¹.

As for IgG1 Fc Fc (from UniProt P01857), in the test with FcRn (Homo sapiens), the Kd was 110 nM.

(Values after article PMC5693891.)
